Earlier results as cited in PMC8019513.
Read-outs that look alike come from different tables or passages of the source.

What was measured:
[1] = biological target: IL-8 (Homo sapiens) (UniProt P10145)
[2] = biological target: IL-8 (Homo sapiens) (UniProt P10145); remark: listed apart in the source

Chain of IL-8 (Homo sapiens) (P10145 28-99): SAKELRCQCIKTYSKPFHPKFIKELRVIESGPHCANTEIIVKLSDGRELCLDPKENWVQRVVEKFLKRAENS
Chain of CXCR2 (P25025 whole entry): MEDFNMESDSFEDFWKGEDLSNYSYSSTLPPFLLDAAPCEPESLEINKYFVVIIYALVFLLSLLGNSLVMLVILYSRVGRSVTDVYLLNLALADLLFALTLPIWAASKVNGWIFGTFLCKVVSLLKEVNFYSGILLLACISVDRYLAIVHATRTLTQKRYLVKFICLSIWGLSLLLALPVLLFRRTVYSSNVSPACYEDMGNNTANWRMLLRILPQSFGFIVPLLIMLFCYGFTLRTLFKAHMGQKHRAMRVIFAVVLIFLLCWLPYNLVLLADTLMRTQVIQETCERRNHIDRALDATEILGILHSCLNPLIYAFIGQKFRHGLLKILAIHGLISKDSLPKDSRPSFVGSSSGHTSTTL
Chain of CXCR1 (P25024 whole entry): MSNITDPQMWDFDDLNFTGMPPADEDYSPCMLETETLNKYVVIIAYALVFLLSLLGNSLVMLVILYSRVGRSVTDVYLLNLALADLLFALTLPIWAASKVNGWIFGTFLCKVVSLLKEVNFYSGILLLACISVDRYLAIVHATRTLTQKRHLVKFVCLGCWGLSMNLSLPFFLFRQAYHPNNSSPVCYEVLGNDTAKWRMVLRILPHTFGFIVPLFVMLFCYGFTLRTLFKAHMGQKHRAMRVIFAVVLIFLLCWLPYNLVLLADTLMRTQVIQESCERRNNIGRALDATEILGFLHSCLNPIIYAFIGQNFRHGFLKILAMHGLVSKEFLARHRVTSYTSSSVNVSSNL

In the case of CXCR1 (from UniProt P25024), the Kd [1] is given as 4 nM.

In the case of CXCR2 (from UniProt P25025), the Kd [2] is listed as 4 nM.
